According to patent US7799901B2, “Modulators of the function of FAS receptors and other proteins” (Yeda Research and Development Co. Ltd., priority 1995, dated 2010):

How the values were obtained:
[1] = target: T1, MACHα1 (Homo sapiens, UniProt Q14790); experiment: Two-hybrid β-galactosidase filter assay (FIG. 5), binding to MACHα1; details: two hybrid test
T1 construct: expressed in transfected cells; host or cells: SFY526 yeast
Procedure: In FIG. 5, there is shown the results of the interaction of MORT-1 and MACH within transfected yeast cells. Briefly, MORT-1 and MACHβ1 and their deletion constructs, as well as MACHα1, a MACHα1 mutant in which the catalytic cysteine Cys360 is replaced by Ser (MACHα1 (C360S)) and the intracellular domain of human FAS-R (Fas-IC), were expressed within transfected SFY526 yeast in Gal4 DNA binding domain and activation domain constructs (pGBT9 and pGAD-GH). Their interaction was assessed by a β-galactosidase expression filter assay as described in Boldin et al (1995b). The results are presented in terms of the time required for the development of strong color. […] None of the inserts examined interacted with a number of tested negative controls, including the intracellular domains of human p55 TNF receptor, p75 TNF receptor and CD40, and lamin, cyclin D and ‘empty’ Gal4 vectors. MACHβ1 was cloned by two hybrid screening of a Gal4 AD-tagged human B cell library (Durfee et al, 1993) for proteins that bind to MORT-1, using the HF7c Yeast reporter strain. Except where otherwise indicated, all experimental procedures for the findings presented are as described above (see also Boldin et al, 1995). […] MACHβ1 also self-associated in the transfected yeast. […] Expression of MACHβ1 molecules in mammalian cells yielded a 34 kDa protein that bound to MORT-1 molecules co-expressed with it. […]

[2] = tested on: Fas/APO1-induced death of HeLa cells; experiment: Death of HeLa cells expressing Fas/APO1 induced by anti-Fas/APO1 antibody and cycloheximide; format: cell-based, human; details: HeLa cells transiently expressing Fas/APO1; CH11 0.5 μg/ml, cycloheximide 10 μg/ml
Procedure: In brief, 293-EBNA cells, MCF7 human breast carcinoma cells and HeLa HtTA-1 cells were grown in Dulbecco's modified Eagle's minimal essential medium supplemented with 10% fetal calf serum, nonessential amino acids, 100 U/ml penicillin and 100 μg/ml streptomycin. Cell tissue culture dishes (5×10^5 293-EBNA cells, 3×10^5 s MCF7 cells or 3×10^5 HeLa cells in 6-cm dishes) were transiently transfected, using the calcium phosphate precipitation method, with the cDNAs of the indicated proteins together with the β-galactosidase expression vector. In the experiments presented in FIGS. 14A-D and 15, each dish was transfected with 3.5 μg of the indicated MACH construct and 1.5 μg of pSV-β-gal. In the experiments presented in FIGS. 16A-D and 17-19, each dish was transfected with 2.5 μg of the indicated MACH or MORT1 construct (or, as control, empty vector) and 1.5 μg of pSV-β-gal. The cells were rinsed 6 to 10 h after transfection. The 293-EBNA and MCF7 cells were incubated for a further 18 h without additional treatment. The HeLa cells were incubated for 26 h after transfection and-then for 5 h in the presence of either anti-Fas.APO1 antibody (CH11, 0.5 μg/ml) or TNF (100 ng/ml), together with cycloheximide (10 μg/ml). The extent of cell death at the end of the incubation periods was assessed by determination of β-galactosidase expression, as described by Kumar et al, 1994.
The HeLa cells were made responsive to Fas/APO1 by transient expression of this receptor. […] These protective effects indicate that MACHα is a necessary component of both the Fas/APO1- and the p55-R-induced signaling cascades for cell death.
In particular, FIGS. 16A-D show morphology of 293-EBNA cells in which cell death was induced by transient expression of a chimera comprised of the extracellular domain of the p55-R (amino acids 1-168) fused to the transmembrane and intracellular domains of Fas/APO1 (amino acids 153-319) (p55-Fas chimera) (FIGS. 16A and 16B), or by expression of the p55-R (FIGS. 16C and 16D), and of cells that were protected from these cytotoxic effects by their simultaneous transfection with MACHα1 (C360S) (FIGS. 16B and 16D). Photographs were taken 26 h after transfection. FIG. 17 illustrates the quantification of death induced in 293-EBNA cells by their transfection with p55-Fas chimera or with p55-R, together with an empty vector, a MORT1 deletion mutant lacking the MACH-binding region (MORT1 (92-208)), or MACHα molecules containing a nonfunctional CED3/ICE region. […] Data are from at least two independent experiments and are expressed as in FIGS. 14A-F and 15.

T1 sequence (Q14790 217-479): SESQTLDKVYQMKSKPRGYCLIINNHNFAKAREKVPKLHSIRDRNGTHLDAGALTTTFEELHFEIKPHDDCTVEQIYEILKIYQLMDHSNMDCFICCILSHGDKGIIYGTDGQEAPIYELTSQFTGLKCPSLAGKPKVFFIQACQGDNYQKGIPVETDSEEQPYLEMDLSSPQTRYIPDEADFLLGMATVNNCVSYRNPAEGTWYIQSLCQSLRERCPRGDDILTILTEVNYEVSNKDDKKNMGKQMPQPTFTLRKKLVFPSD

MACHα1: MACH isoform, cDNA SEQ ID NO: 14, amino acid SEQ ID NO: 7; contains CED3/ICE homology region
binding to MACHα1 in transfected yeast (self-interaction) [1]: did not exhibit self-interaction

B1: MACHα1 (C360S): MACHα1 mutant in which the catalytic cysteine Cys360 is replaced by Ser (protein)
chain: MDFSRNLYDIGEQLDSEDLASLKFLSLDYIPQRKQEPIKDALMLFQRLQEKRMLEESNLSFLKELLFRINRLDLLITYLNTRKEEMERELQTPGRAQISAYRVMLYQISEEVSRSELRSFKFLLQEEISKCKLDDDMNLLDIFIEMEKRVILGEGKLDILKRVCAQINKSLLKIINDYEEFSKERSSSLEGSPDEFSNGEELCGVMTISDSPREQDSESQTLDKVYQMKSKPRGYCLIINNHNFAKAREKVPKLHSIRDRNGTHLDAGALTTTFEELHFEIKPHDDCTVEQIYEILKIYQLMDHSNMDCFICCILSHGDKGIIYGTDGQEAPIYELTSQFTGLKCPSLAGKPKVFFIQASQGDNYQKGIPVETDSEEQPYLEMDLSSPQTRYIPDEADFLLGMATVNNCVSYRNPAEGTWYIQSLCQSLRERCPRGDDILTILTEVNYEVSNKDDKKNMGKQMPQPTFTLRKKLVFPSD
protection against death induced by anti-Fas/APO1 antibody and cycloheximide [2]: prevention
